This is an account of results in article PMC10783015.

The target of data set [1] is T1, CRP (Salmonella enterica serovar Typhimurium ATCC 14028) (UniProt P0A2T6).
T1 sequence: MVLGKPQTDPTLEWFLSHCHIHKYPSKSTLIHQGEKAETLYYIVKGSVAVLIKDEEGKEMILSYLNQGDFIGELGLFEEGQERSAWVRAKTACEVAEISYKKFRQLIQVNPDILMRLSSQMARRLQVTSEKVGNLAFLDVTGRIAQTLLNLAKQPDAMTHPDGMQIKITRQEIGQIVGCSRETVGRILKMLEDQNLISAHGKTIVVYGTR
Description: SPR. As to conditions: EMSA: 100 ng DNA in 1x TBE, 20 uL, 45 min at room temperature, 12% native PAGE, PargS competitor, 20 uM cAMP for CRP; SPR: streptavidin chip with biotinylated ….

Data set [2] deals with T2, H-NS (Salmonella enterica serovar Typhimurium ATCC 14028) (UniProt P0A1S2).
T2 sequence: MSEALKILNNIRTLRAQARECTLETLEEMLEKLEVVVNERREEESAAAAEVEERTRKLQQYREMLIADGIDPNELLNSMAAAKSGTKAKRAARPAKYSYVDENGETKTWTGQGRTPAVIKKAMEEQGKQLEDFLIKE
Description: SPR. As to conditions: EMSA: 100 ng DNA in 1x TBE, 20 uL, 45 min at room temperature, 12% native PAGE, PargS competitor, 20 uM cAMP for CRP; SPR: streptavidin chip with biotinylated ….

Sequence “AAGAGCCTGAATATTCACCGGAATACCTTACGTTTATGAAGCGGGCTGTATTGCCCGCGCCAGTTTAAGAATTAGGGCGGGAGTATACTGCAAATGCCCGTTGGCGTCAGCATTGCGCGCGCGGCGCGTCGCCTGAAATATACGCAACAATAATCTGCATAAGCATTCAATAAACGCCCAATCAAATCAAAGGTTG (double strand) [PargS SPR]” returned a Kd in data set [1] of 1 nM. Besides, the binding entry in data set [2] is given as “no binding”.

Regarding “CTTATGTCGGTCATTGCCGTAGCGCTGCCGACGATCTTATAGCTATTGAGAACTCTCGTTTCACAACCTATGTTTTAATTTCAAAACGATCAATAATGAAACTTATGTTTTGTTATGGGTATCACATTTCGAATTTCATAATCCTGGCGTTTTTTATCGTT (double strand) [PiolT1 SPR]”, the binding result in data set [1] is recorded as “no binding”.
